In the supplement of paper PMC9170038:

Test system: MS2 coat protein
Test: apparent KD of MS2 coat protein; designed switch direction (-1 OFF switch, 1 ON switch): 1; higher = weaker reporter binding
Summary of the method: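 Designed RNA switches with common flanks were transcribed on Illumina chips by stalled E. coli RNA polymerase and titrated with SNAP-549-labelled MS2 coat protein, from 0.7 or 1.5 nM doubling to 3 µM, in Tris-HCl pH 7.5 buffer with KCl, MgCl2, BSA, DTT, tRNA and Tween-20. Steps lasted 0.8–1.5 h (lowest) to 10–20 min (highest). Titrations ran without input, with 200 uM small-molecule ligand, or with an oligonucleotide input. Normalised cluster fluorescence was curve-fitted, and apparent KD is the per-design median over clusters.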

[1] = input ligand: microRNA oligo, concentration not stated
[2] = Eterna round: R95, input ligand: FMN 200 uM
[3] = Eterna round: R95, input ligand: microRNA oligo, concentration not stated
[4] = Eterna round: R95, input ligand: none

| Sequence | apparent KD of MS2 coat protein (input ligand: FMN 200 uM) [nM] | apparent KD of MS2 coat protein [1] [nM] | apparent KD of MS2 coat protein (input ligand: none) [nM] | apparent KD of MS2 coat protein [2] [nM] | apparent KD of MS2 coat protein [3] [nM] | apparent KD of MS2 coat protein [4] [nM] |
| --- | --- | --- | --- | --- | --- | --- |
| GGUAGGUUACUACCAACACAUGAGGAUCACCCAUGUUAUGGGAAGGAUAUGGUACCUAUUUGGUACCAGAAGGUCCAGUUAAUU [Fiskers NG3ss - 16] (Eterna round: R96, puzzle: Same State NG 3) | 77.6 | 206 | 449 |  |  |  |
| GGUCCAGCCUGAGCUGGACAAAAGCAUGUACAUGAGGAUCACCCAUGUCAUGUACAAGCUUUUUGCUCGUUUUAAAA [JL mod - D87 - 14] (puzzle: Sensor for hsa-mir-208a) |  |  |  | 527 | 14.5 | 576 |
| GGUCCAGCCUGAGCUGGACAAAAGCAUGUACAUGAGGAUCACCCAUGUUAUGUACAAGCUUUUUGCUCGUCUUAAAA [JL mod - D87 - 10] (Eterna round: R96, puzzle: Sensor for hsa-mir-208a) | 183 | 12.2 | 188 |  |  |  |
| GGUCCAGCCUGAGCUGGACAAAAGCAUGUACAUGAGGAUCACCCAUGUUAUGUACAAGCUUUUUGCUCGUCUUAAAA [JL mod - D87 - 10] (puzzle: Sensor for hsa-mir-208a) |  |  |  | 172 | 12.6 | 231 |
| GGUCCAGCCUGAGCUGGACAAAAGCAUGUACAUGAGGAUCACCCAUGUUCAUGUACAAGCUUUUUGCUCGUCUUACA [salish99_208a_r3_084] (puzzle: Sensor for hsa-mir-208a) |  |  |  | 485 | 14.8 | 443 |
| GGUCCAGCCUGAGCUGGACAAAAGUAUGUACAUGAGGAUCACCCAUGUCAUGUACAAGCUUUUUGCUCGUCUUAAAA [JL mod - D87 - 9] (puzzle: Sensor for hsa-mir-208a) |  |  |  | 430 | 22.4 | 486 |
| GGUCCAGCCUGAGCUGGACGGUAGUAUGUACAUGAGGAUCACCCAUGUCAUGUAGAAGUUACUUGUUCGUCUUGAAC [SENSOR #1] (puzzle: Sensor for hsa-mir-208a) |  |  |  | 15.1 | 13.3 | 14.9 |
| GGUCCAGCCUGAGCUGGACUACAGCAUGUACAUGAGGAUCACCCAUGUCAUGUACAUGUUUUUUGUUUGUCUUAAAA [Sensorship 9 - Jieux - Sensor for hsa-mir-208a] (Eterna round: R96, puzzle: Sensor for hsa-mir-208a) | 200 | 57.5 | 503 |  |  |  |
| GGUCCAGCCUGAGCUGGACUACAGCAUGUACAUGAGGAUCACCCAUGUCAUGUACAUGUUUUUUGUUUGUCUUAAAA [Sensorship 9 - Jieux - Sensor for hsa-mir-208a] (puzzle: Sensor for hsa-mir-208a) |  |  |  | 69 | 70.1 | 99.4 |
| GGUCCAUCAUGAGGAUAUGGCACCUUAUUGGUGCCAGAAGGCAUGUCUAUGACAUGAGGAUCACCCAUGUAAAUAAAUUGGACC [Eli NG1ss - 94] (Eterna round: R96, puzzle: Same State NG 1) | 32.3 | 243 | 232 |  |  |  |
| GGUCCCUACGCACAGGAUAUUCUUUUGGCAACAUGAGGAUCACCCAUGUGUGCCGAUCAUGGUUAGAAGAAGGGUGGUAAGGACG [Qucesosobe] (puzzle: Same State 2) |  |  |  | 9.76 | 10.8 | 12.2 |
| GGUCCGGCCUGAGCUGGACCGAAGCAUGUACAUGAGGAUCACCCAUGUUCAUGUGCAGGCUUUUUGCUCGUCUUGUG [JL-shm-2.05 JL mod] (puzzle: Sensor for hsa-mir-208a) |  |  |  | 91.7 | 12.7 | 106 |
| GGUCGGACUCACAUGAGGAUCACCCAUGUUGCGGAAACGCGAUAGGAUAUCUGUCCGAAAAGGUCAGAGAAGGGUCAACCGACC [Fiskers NG3ss - 64] (Eterna round: R96, puzzle: Same State NG 3) | 447 | 486 | 567 |  |  |  |
| GGUCGGUCCUACAUGAGGAUCACCCAUGUUCCGGAAACGGCAUAGGAUAUCUGUCCGAAAAGGUCAGAGAAGGGUGAACCGACC [Fiskers NG3ss - 73] (Eterna round: R96, puzzle: Same State NG 3) | 153 | 118 | 189 |  |  |  |
| GGUGCCAAAUAAGCCUACAUGAGGAUCACCCAUGUAUGUAGGUAGGAUAUCGUUUGCAAAGCAAACGAGAAGGGCCUAGGCACC [Mat - Same State NG 3 - JL Mod - D59] (Eterna round: R96, puzzle: Same State NG 3) | 26.1 | 39.3 | 50.7 |  |  |  |
| GGUGCCAAUAAAGCCUACAUGAGGAUCACCCAUGUAUGUAGGCAGGAUAUCGUUUGCAAAGCAAACGAGAAGGGCCUAGGCACC [Mat - Same State NG 3 - JL Mod - D61] (Eterna round: R96, puzzle: Same State NG 3) | 18.6 | 21.4 | 31.5 |  |  |  |
| GGUGGGUUGCUACCGGCACAUGAGGAUCACCCAUGUUUUGGGAAGGAUAUGGUACCUAUUUGGUACCAGAAGGUCCCGUUGGUG [salish99_SSNG3_r04_708] (Eterna round: R96, puzzle: Same State NG 3) |  | 176 |  |  |  |  |
| GGUGUACAUGAGGAUCACCCAUGUCGACCGCUCACAGGAUAUUUAAUACAAACUGGUAGCGGAGAAGGGUGAGGAA [Oresbeve] (Eterna round: R96, puzzle: Same State 1) | 523 | 160 | 188 |  |  |  |
| GGUGUACAUGAGGAUCACCCAUGUCGACCGCUCACAGGAUAUUUAAUACAAACUGGUAGCGGAGAAGGGUGAGGAA [Oresbeve] (puzzle: Same State 1) |  |  |  | 164 | 95.7 | 247 |
| GUACAGAUCAGAGGAUAUCACGUCGUUUAGACGUGAGAAGGCUGAUCACACAUGAAUAUUAGUACAUGAGGAUCACCCAUGUAC [SSNG1/15-A3] (Eterna round: R96, puzzle: Same State NG 1) | 13.7 | 13.4 | 17.5 |  |  |  |
| GUACAUAUCAGAGGAUAUCACGUCGAAUAGACGUGAGAAGGCUGAUCACACAUGAAUAUUAAUACAUGAGGAUCACCCAUGUAC [SSNG1/13-A1] (Eterna round: R96, puzzle: Same State NG 1) | 16.9 | 24.5 | 31.2 |  |  |  |
| GUAGCAUACCGAGGAUAUUCAUAUAACAUGAGGAUCACCCAUGUAAGGCCACAUUAGUGGCCUUGGGAGAAGGCGGAAUGCUAC [Xeonanis - 20 Mod41] (Eterna round: R96, puzzle: Same State NG 2) | 11.7 | 63.5 | 77.1 |  |  |  |
| GUAGCAUACCGAGGAUAUUCAUAUAAUAAAUAACAUGAGGAUCACCCAUGUUGGCGAAAGCCUUGGGAGAAGGCGGAAUGCUAC [Xeonanis - 20 Mod56] (Eterna round: R96, puzzle: Same State NG 2) | 13.5 | 45.8 | 55.5 |  |  |  |
| GUAGCAUACCGAGGAUAUUCAUAUACAUGAGGAUCACCCAUGUUGGCCAGCAUUAGCUGGCCUUGGGAGAAGGCGGAAUGCUAC [Xeonanis - 20 Mod50] (Eterna round: R96, puzzle: Same State NG 2) | 18.9 | 79.4 | 141 |  |  |  |
| GUAGCAUACCGAGGAUAUUCAUAUUAUAACAUGAGGAUCACCCAUGUUGGCCGAUUACGGCCUUGGGAGAAGGCGGAAUGCUAC [Xeonanis - 20 Mod18] (Eterna round: R96, puzzle: Same State NG 2) | 15.8 | 74.1 | 84.3 |  |  |  |
| GUAGCAUACCGAGGAUAUUCAUAUUAUACAUGAGGAUCACCCAUGUAAGGCCGAUUACGGCCUUGGGAGAAGGCGGAAUGCUAC [Xeonanis - 20 Mod21] (Eterna round: R96, puzzle: Same State NG 2) | 18.9 | 68.2 | 105 |  |  |  |
| GUCGGGCAAGCUUUUUUCUCGUAGUGUAAACAUGAGGAUCACCCAUGUGCUCGCCCUGGAUCUUUGGAUCGCAGAAA [Isxevevere] (puzzle: Sensor for hsa-mir-208a) |  |  |  | 57.5 | 34.9 | 64.5 |
| GUGGAGGGUUAAGGAUAUUGAAUACAUAUGUUUAACAUGAGGAUCACCCAUGUGGGUUGCGGUAUCGAGAAGGUAAAUUACUGG [salish99_SSNG2_r04_035] (Eterna round: R96, puzzle: Same State NG 2) | 192 | 151 | 133 |  |  |  |
| GUGGAGGGUUGAGGAUAUUGAAUACAUAUGUUUAACAUGAGGAUCACCCAUGUGGGUUGCGGUUUCGAGAAGGUAGGUUGCUGG [salish99_SSNG2_r04_040] (Eterna round: R96, puzzle: Same State NG 2) | 103 | 72 | 111 |  |  |  |
| GUGGCCCAGGCACAGGAUAUGUUUCUCGUAACAUGAGGAUCACCCAUGUGCCUAUGAGAUUUAAUGCAGAAGGGUGCACGCCACG [Atiinbe] (Eterna round: R96, puzzle: Same State 2) | 18.2 | 61.3 | 103 |  |  |  |
